For experiment [1], the target named is Rat IL-23R_huFC (rat). In words: rat ELISA vs IL-23.
Experiment [2] addresses T1, IL23R_huFC (human, UniProt Q5VWK5 24-353).
T1 sequence (looked up): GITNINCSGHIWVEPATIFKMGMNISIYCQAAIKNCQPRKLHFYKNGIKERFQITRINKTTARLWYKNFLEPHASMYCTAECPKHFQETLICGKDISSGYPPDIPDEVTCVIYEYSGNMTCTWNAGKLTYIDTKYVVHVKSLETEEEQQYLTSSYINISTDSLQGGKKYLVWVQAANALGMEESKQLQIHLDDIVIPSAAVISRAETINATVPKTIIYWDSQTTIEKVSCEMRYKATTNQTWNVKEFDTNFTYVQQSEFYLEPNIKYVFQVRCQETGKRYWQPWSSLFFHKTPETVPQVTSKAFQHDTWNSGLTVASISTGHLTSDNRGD
As to the kind of experiment: human ELISA vs IL-23. A general note: ELISA stands for enzyme-linked immunosorbent assay.

Experiment [3] has as its target T2, IL23R_huFC (human, UniProt Q5VWK5 24-353).
T2 sequence (looked up): T1 sequence (looked up)
In words: IL23-IL23R competitive binding ELISA.

For experiment [4], the target named is T1, IL23R_huFC. As to the kind of experiment: human ELISA vs IL-23. The source holds these as a separate data set.
In experiment [5] the target is T3, IL-23R on human cells (IL-23R-expressing DB cells; human NK cells) (human, UniProt Q5VWK5 24-629).
T3 sequence (looked up): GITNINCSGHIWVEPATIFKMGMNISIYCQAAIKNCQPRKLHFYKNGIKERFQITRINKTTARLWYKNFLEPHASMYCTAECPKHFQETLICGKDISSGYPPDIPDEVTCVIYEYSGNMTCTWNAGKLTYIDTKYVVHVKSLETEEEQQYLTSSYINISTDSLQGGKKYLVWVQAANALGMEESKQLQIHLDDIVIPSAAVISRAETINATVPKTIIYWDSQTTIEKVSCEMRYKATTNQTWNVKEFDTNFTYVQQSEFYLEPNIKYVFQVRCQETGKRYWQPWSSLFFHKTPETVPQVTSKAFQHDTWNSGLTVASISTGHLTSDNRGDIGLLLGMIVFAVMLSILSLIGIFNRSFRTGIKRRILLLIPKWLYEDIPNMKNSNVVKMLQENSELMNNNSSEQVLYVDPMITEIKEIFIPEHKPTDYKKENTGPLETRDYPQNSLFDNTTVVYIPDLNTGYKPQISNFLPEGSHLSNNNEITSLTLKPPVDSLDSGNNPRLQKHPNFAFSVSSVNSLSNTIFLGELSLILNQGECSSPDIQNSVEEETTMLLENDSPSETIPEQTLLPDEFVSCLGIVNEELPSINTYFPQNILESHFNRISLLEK
In words: cell-based or functional assay.

In experiment [6] the target is T3, IL-23R on human cells …. In words: cell-based or functional assay. This is another data set of the same source.
Experiment [7] deals with T4, IL-23R on DB cells (human, UniProt Q5VWK5 24-629).
T4 sequence (looked up): T3 sequence (looked up)
In words: cell-based or functional assay.

In experiment [8] the target is T5, Rat IL-23R_huFC (rat, UniProt F1LX96 39-369).
T5 sequence: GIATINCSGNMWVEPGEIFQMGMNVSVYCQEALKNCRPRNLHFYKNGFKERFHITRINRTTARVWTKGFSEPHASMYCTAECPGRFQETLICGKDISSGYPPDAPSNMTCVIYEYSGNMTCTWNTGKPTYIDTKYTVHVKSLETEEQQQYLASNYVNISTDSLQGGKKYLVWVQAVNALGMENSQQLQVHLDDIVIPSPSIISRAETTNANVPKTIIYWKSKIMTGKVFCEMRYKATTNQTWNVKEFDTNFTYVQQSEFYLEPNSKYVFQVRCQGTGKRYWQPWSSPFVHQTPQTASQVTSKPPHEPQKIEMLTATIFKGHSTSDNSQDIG
In words: rat IL-23R competitive binding ELISA.

Experiment [9] deals with T6, IL23R_huFC (human, UniProt Q5VWK5 24-353).
T6 sequence (looked up): T1 sequence (looked up)
As to the kind of experiment: IL23-IL23R competitive ELISA.

Experiment [10] has as its target T5, Rat IL-23R_huFC. In words: rat IL-23R competitive binding ELISA. The source holds these as a separate data set.

Like-named read-outs stand apart in the source and are kept apart here. *1 amine or outer side, *2 acyl side, *3 side chain or, on linkers, in order; H or OH if unused. Bridges are numbered along the chain shown (N, C = ends). [ ]: non-standard residue; d: D form. The star is where a group is joined. Phe(4-OMe) = 4-methoxy-L-phenylalanine (O-methyl-L-tyrosine), COc1ccc(C[C@H](N[*:1])C(=O)[*:2])cc1; Abu(4-yl) = O=C([C@H](CC[*:3])N[*:1])[*:2]; 2Nal = N[C@@H](Cc1ccc2ccccc2c1)C(=O)O; Palmitoyl = CCCCCCCCCCCCCCCC(=O)*; β3hR = N=C(N)NCCC[C@H](N)CC(=O)O; αMeK = C[C@](N)(CCCCN)C(=O)O; Abu = CC[C@H](N)C(=O)O; AEA = NCCOCC(=O)O

The source of these data is patent publication US20190300590A1 (PROTAGONIST THERAPEUTICS, published 2019).

By IC50 is commonly meant the midpoint of a concentration-inhibition curve. XQTWQXFXKENG (as bracketed in name; thioether cyclo) [Ac-Cyclo-[[Abu]-QTWQ-[Pen]]-[Phe(4-OMe)]-[2-Nal]-[α-MeLys]-ENG-NH2]: the IC50 in experiment [1] and in experiment [2] was 100 to 1000 nM throughout.

Turning to CQTWQCYWXLNG (Ac; Z as printed (not explained); NH2) [Ac-CQTWQCYWZ-LNG-NH2], the IC50 in experiment [3] turned out to be 800 nM.

In the case of Ac-[Abu]QTWQC[Phe(4-OMe)][2Nal][dN]K(Ac)NG-NH2 (thioether 1-6) [Ac-Cyclo-[[Abu]-QTWQC]-[Phe(4-OMe)]-[2-Nal]-[(D)Asn]-[Lys(Ac)]-NG-NH2], the IC50 in [4] is 25 to 100 nM; in [1], 100 to 1000 nM.

On to Ac-[Abu]QTWQC[Phe(4-OMe)][2Nal][αMeK]ENG-NH2 (thioether 1-6) [Ac-Cyclo-[[Abu]-QTWQC]-[Phe(4-OMe)]-[2-Nal]-[α-MeLys]-ENG-NH2], for which the “pStat3 HTRF IC50” value in [5] was less than 10 nM. Also, the values for the IC50 in experiment [4] and in experiment [1] were 25 to 100 nM and 100 to 1000 nM, respectively.

As for XNTWQXFXXKNN (as bracketed in name; Pen-Pen disulfide) [Ac-[Pen]-NTWQ-[Pen]-[Phe]4-(2-aminoethoxy)]-[2-Nal]-[Aib]-[Lys(Ac)]-NN-NH2], the “NK cell assay IC50 (IFNγ)” value in experiment [6] is less than 10 nM.

Ac-CQTWQCYW[dL]ENG-NH2 (cysteine pairing not given here) [Ac-CQTWQCYW-[(D)Leu]-ENG-NH2] gave an IC50 in [3] of 319 nM.

On to CQTWQCYWLENG (not fully specified; Ac; α-MeLeu at 9; NH2) [Ac-CQTWQCYW-[α-MeLeu]-ENG-NH2], for which, in experiment [7], the “pStat3 HTRF IC50” value is 5 nM. In addition, the IC50 in experiment [8] turned out to be 27 nM.

On to Ac-CQTWQCYWK(Palmitoyl)ENG-NH2 (cysteine pairing not given here) [Ac-CQTWQCYW-[K(Palm)]-ENG-NH2], for which the 50% inhibitory concentration (IC50) in experiment [3] came to 4880 nM.

B1: Ac-CQTWQCYW-[βhArg]-VNG-[AEA]-[(D)Lys]-NH2 (peptide)
peptide: Ac-CQTWQCYW[β3hR]VNG[AEA][dK]-NH2
modifications: disulfide 1-6
SMILES: CC(=O)N[C@H]1CSSC[C@@H](C(=O)N[C@@H](Cc2ccc(O)cc2)C(=O)N[C@@H](Cc2c[nH]c3ccccc23)C(=O)N[C@@H](CCCNC(=N)N)CC(=O)N[C@H](C(=O)N[C@@H](CC(N)=O)C(=O)NCC(=O)NCCOCC(=O)N[C@H](CCCCN)C(N)=O)C(C)C)NC(=O)[C@H](CCC(N)=O)NC(=O)[C@H](Cc2c[nH]c3ccccc23)NC(=O)[C@H]([C@@H](C)O)NC(=O)[C@H](CCC(N)=O)NC1=O
With B1, the concentration for half-maximal inhibition (IC50) in [9] came to 922 nM.

B2: [Ac-[Pen]-QTWQ-[Pen]-[Phe(4-CONH2)]-[2-Nal]-[α-MeLys]-[Lys(Ac)]-NN-NH2]2DIG (peptide)
peptide: XQTWQXFXKKNN
modifications: Ac; Pen-Pen disulfide; Phe(4-CONH2); 2-Nal; α-MeLys; Lys(Ac); NH2; DIG linker joins the two subunits
B2 came in with an IC50 in experiment [10] of 10 to 25 nM.

B3: [Ac-[Pen]-QTWQ-[Pen]-[Phe(4-OMe)]-[2-Nal]-[α-MeLys]-[Lys(Ac)]-NN-NH2]2DIG (peptide)
peptide: XQTWQXFXKKNN
modifications: Ac; Pen-Pen disulfide; Phe(4-OMe); 2-Nal; α-MeLys; Lys(Ac); NH2; DIG linker joins the two subunits
In the case of B3, the IC50 in experiment [10] lay in the range of 10 to 25 nM.

B4: [Ac-[Pen]-QTWQ[Pen]-[Phe[4-(2-acetylaminoethoxy)]-[2-Nal]-K-[Lys(Ac)]-NN-NH2]2DIG (peptide)
peptide: XQTWQXFXKKNN
modifications: Ac; Pen-Pen disulfide; Phe[4-(2-acetylaminoethoxy)]; 2-Nal; Lys(Ac); NH2; DIG linker joins the two subunits
Regarding B4, the IC50 in experiment [10] is 25 to 100 nM.

B5: [Ac-[Pen]-QTWQ[Pen]-[Phe[4-(2-acetylaminoethoxy)]-[2-Nal]-[α-MeVal]-KNN-NH2]2DIG (peptide)
peptide: XQTWQXFXVKNN
modifications: not fully specified; Ac; Pen-Pen disulfide; Phe[4-(2-acetylaminoethoxy)]; 2-Nal; α-MeVal; NH2; DIG linker joins the two subunits
On to B5, for which the IC50 in experiment [10] is 10 to 25 nM.

B6: Ac-Cyclo-[[Abu]RTWQC]-YWRKFG-[AEA]-[(D)Lys]-NH2 (peptide)
peptide: Ac-[Abu(4-yl)]RTWQCYWRKFG[AEA][dK]-NH2
modifications: thioether 1-6
SMILES: CC(=O)N[C@H]1CCSC[C@@H](C(=O)N[C@@H](Cc2ccc(O)cc2)C(=O)N[C@@H](Cc2c[nH]c3ccccc23)C(=O)N[C@@H](CCCNC(=N)N)C(=O)N[C@@H](CCCCN)C(=O)N[C@@H](Cc2ccccc2)C(=O)NCC(=O)NCCOCC(=O)N[C@H](CCCCN)C(N)=O)NC(=O)[C@H](CCC(N)=O)NC(=O)[C@H](Cc2c[nH]c3ccccc23)NC(=O)[C@H]([C@@H](C)O)NC(=O)[C@H](CCCNC(=N)N)NC1=O
For B6, the values for the half-inhibitory concentration (IC50) in experiment [4] and in experiment [1] were 25 to 100 nM and 100 to 1000 nM, respectively.
